# Patent US10858396B2, “HER2 peptide regents and methods” (THE REGENTS OF THE UNIVERSITY OF MICHIGAN, priority 2015, dated 2020)
# “Also recorded” adds a separate entry of the source. Ends that are not written are not given here.
# Legend:
# [1] = system: HER2-mediated signaling; experiment: Effect of HER2 peptide on cell signaling (western blot); format: cell-based, human; settings: 48 hours
# Protocol: SKBR3 cells are commonly used to evaluate HER2 signaling, and were grown in 6 well plates to ˜60% confluence. Unlabeled KSP* peptide was added to separate wells at concentrations of 5 and 100 μM. Lapatinib, a tyrosine kinase inhibitor, was used as a positive control and was added in concentrations of 1, 25, 100 and 1000 nM. Lapatinib stock solution starting at 1 mg/mL was diluted in DMSO and PBS. 1% DMSO treated cells and untreated cells were used as control. After 48 hours following treatment, the cells were harvested for western blot analysis. Anti-HER2 antibody (Cell Signaling, #2165), phospho-HER2/ErbB2 (Tyr1248) antibody (Cell Signaling, #2247), anti-AKT (Cell Signaling, #4691P), anti-ERK1/2 (Cell Signaling, #4695P), anti-phospho-AKT (pS473), (Cell Signaling, #4060P), anti-phospho-ERK1/2 (Cell Signaling, #4370P) and anti-tubulin (Invitrogen, #32-2600) were used per manufacturer's instructions.
# [2] = target: T1, HER2 (Homo sapiens, UniProt P04626); experiment: Competition for peptide reagent binding with unlabeled KSP* on HT29 cells; set-up: host or cells: HT29; settings: unlabeled KSP* 0, 10, 25, 50, 100 μM, then 2 μM KSP*-Cy5.5
# Protocol: Specific binding of KSP*-Cy5.5 to HT29 cells was validated on competitive inhibition with unlabeled KSP* peptide reagent. ˜7500 HT29 cells were grown to ˜70% confluence on cover slips in triplicate. Unlabeled KSP* peptide at 0, 10, 25, 50, and 100 μM were added and incubated with the cells for 30 min at 4° C. The cells were washed 3× with PBS, and further incubated with 2 μM of KSP*-Cy5.5 for another 30 min at 4° C. The cells were washed 3× with PBS and fixed with 4% PFA for 10 min. The cells were washed with PBS and mounted with ProLong Gold reagent containing DAPI (Invitrogen). Confocal fluorescence images were collected at each concentration, and intensities from 3 independent images were quantified using custom Matlab (Mathworks) software.
# [3] = target: T1, HER2; experiment: Confocal microscopy of FITC-labeled candidate peptides binding to Flo1-HER2 and Q-hTERT (control) cells; format: cell-based; settings: FITC-labeled peptide 10 μM, Flo1-HER2 relative to Q-hTERT cells
# Protocol: Flo-1-Her2 and Q-hTERT cells were seeded with ˜7,500 cells in 12-well plates with 1.5 mm thick glass cover slides, and grown to ˜70% confluence. The cells were gently washed with cold PBS before adding the peptide. 10 μM of FITC-labeled peptide was added to each well and incubated at 4° C. for 1 hour. After incubation, the cells were washed 3× with PBS, fixed in ice-cold 4% PFA for 10 min, and washed 1× with PBS. Subsequently, the cells were embedded on microscope slides with ProLong Gold reagent containing DAPI (Invitrogen), and the slides where analyzed with a Leica TCS SP5 confocal microscope using 63× oil immersion objective (Leica Microsystems, Leider Lane IL). The FITC-labeled peptides and anti-HER2 antibody were tested in quadruplicate.
# [4] = target: T1, HER2; experiment: Confocal fluorescence microscopy of peptide reagent binding to HT29 and SW480 cells; format: cell-based; set-up: host or cells: HT29, SW480; settings: 5 μM, 30 min at 4° C.
# Protocol: Cells were washed with PBS and incubated with 5 μM of KSP*-Cy5.5 and PPS*-Cy5.5 for 30 min at 4° C. The cells were then washed 3× in PBS, fixed with ice cold 4% paraformaldehyde (PFA) for 10 min, washed 1× with PBS, and then mounted on glass slides with ProLong Gold reagent containing DAPI (Invitrogen). Confocal fluorescence images were collected with Cy5.5, and DAPI filters (Leica Inverted SPSX Confocal Microscope System). For antibody staining, the cells were pre-fixed with cold methanol for 10 min at −20° C. and blocked with 2% BSA for 30 min at RT. Cells were incubated with 1:450 dilution of anti HER2 antibody overnight at 4° C. The cells were washed 3× with PBS and processed for secondary staining. Goat-anti rabbit Alexa-Fluor 488 (AF488) was added to the cells and incubated for 1 hour at RT. Cells were further washed 3× with PBS and mounted onto glass cover slips. Fluorescence intensities from 3 independent images were quantified using custom Matlab (Mathworks) software.
# [5] = target: T2, HER2 over expressed by mouse colonic dysplasia (Mus musculus, UniProt P70424); experiment: Peptide reagent immunofluorescence on mouse colonic adenoma sections; settings: 2 μM, 10 min at RT, confocal microscopy
# T2 construct: validate over expression of HER2 in mouse colonic dysplasia; from tissue; host or cells: colonic adenomas / colon of CPC;Apc mice (in vivo, excised colon, fixed sections)
# T2 sequence (P70424 23-1256): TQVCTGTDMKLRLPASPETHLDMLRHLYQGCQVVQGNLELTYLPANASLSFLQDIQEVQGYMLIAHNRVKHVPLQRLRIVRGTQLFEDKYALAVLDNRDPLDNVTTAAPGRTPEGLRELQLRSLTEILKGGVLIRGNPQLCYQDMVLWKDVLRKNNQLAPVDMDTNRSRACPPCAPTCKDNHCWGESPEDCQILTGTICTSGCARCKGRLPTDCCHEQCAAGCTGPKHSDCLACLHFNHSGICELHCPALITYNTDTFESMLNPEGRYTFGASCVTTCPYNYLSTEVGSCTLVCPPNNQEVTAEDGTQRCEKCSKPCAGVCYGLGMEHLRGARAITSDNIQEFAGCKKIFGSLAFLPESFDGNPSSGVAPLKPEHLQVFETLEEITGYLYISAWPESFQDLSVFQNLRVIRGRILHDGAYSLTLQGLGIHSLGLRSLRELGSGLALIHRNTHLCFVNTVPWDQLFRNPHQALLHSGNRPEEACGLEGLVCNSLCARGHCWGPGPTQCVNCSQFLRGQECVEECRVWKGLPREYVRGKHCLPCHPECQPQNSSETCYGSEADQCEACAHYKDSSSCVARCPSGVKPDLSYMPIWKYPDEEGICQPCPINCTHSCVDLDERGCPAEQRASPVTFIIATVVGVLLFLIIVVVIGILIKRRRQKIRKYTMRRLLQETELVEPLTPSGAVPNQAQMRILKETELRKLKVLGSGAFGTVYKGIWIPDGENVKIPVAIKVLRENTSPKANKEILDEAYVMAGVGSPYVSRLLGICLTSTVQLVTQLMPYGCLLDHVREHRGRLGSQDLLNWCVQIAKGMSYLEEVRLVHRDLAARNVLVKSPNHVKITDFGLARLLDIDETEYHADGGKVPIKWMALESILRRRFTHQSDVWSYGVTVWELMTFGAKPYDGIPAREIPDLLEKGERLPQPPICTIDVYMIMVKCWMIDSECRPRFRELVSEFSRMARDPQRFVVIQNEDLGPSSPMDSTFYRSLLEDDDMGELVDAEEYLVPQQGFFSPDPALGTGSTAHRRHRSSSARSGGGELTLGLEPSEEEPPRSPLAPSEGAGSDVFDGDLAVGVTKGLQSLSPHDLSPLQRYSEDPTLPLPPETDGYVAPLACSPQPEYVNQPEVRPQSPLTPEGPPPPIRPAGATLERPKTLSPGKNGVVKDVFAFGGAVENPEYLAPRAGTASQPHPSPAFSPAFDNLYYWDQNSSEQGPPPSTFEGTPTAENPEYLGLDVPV
# Protocol: Specimens of mouse colonic adenoma were formalin fixed and processed, as described previously. Serial 5 μm sections were incubated with 2 μM of each peptide for 10 min at RT. The sections were washed 3× with PBS, and mounted with Prolong Gold reagent containing DAPI (Invitrogen). Adjacent sections were processed for histology (H&E).
# [6] = target: T3, ErbB2 (HER2) (Homo sapiens, UniProt P04626); experiment: Staining of FFPE human Barrett's esophagus specimens with peptide reagents; settings: excised human specimens, 5 μM, 10 min
# T3 construct: specimens of human esophagus were obtained from an archived tissue bank; from tissue; host or cells: FFPE human esophagus (SQ, BE, LGD, HGD, EAC)
# Protocol: Formalin-fixed, paraffin-embedded (FFPE) specimens of human esophagus were obtained from an archived tissue bank. 5 μm thick sections were cut, and mounted onto glass slides (Superfrost Plus, Fischer Scientific). The tissues were deparaffinized, and antigen retrieval was performed. The sections were blocked with protein serum for 15 min at room temperature followed by rinsing with PBS. The sections were then stained with either KSP*-Cy5.5 or RHP*-Cy5.5 at 5 μM concentration for 10 min at room temperature. The sections were then washed 3× for 3 min with PBS and further incubated with anti-HER2 antibody overnight at 4° C. Sections were washed 3× with PBST and mounted with Prolong Gold reagent containing DAPI (Invitrogen) using #1 cover glass ([…]).
# [7] = target: T4, colonic adenomas that over express HER2 (Mus musculus, UniProt P70424); experiment: In vivo endoscopic NIR imaging of mouse colonic adenomas, topical peptide reagent; settings: CPC;Apc mice
# T4 construct: validate over expression of HER2 in mouse colonic dysplasia; from tissue; host or cells: colonic adenomas / colon of CPC;Apc mice (in vivo, excised colon, fixed sections)
# T4 sequence (P70424 23-1256): as above
# Protocol: Mouse imaging studies were performed with approval of the University of Michigan Committee on the Use and Care of Animals (UCUCA). The mice were housed in pathogen-free conditions and supplied water ad libitum under controlled conditions of humidity (50±10%), light (12/12 hour light/dark cycle) and temperature (25° C.). Anesthesia was induced and maintained via a nose cone with inhaled isoflurane mixed with oxygen at a concentration of 2-4% at a flow rate of ˜0.5 L/min. The colon was first rinsed with tap water to remove mucous and debris. White light illumination was used first to identify anatomic landmarks, including polyps, mucosal folds, colonic segment, and distance of endoscope tip from anus, to register the in vivo images with histology. […] During imaging, we recorded the 1) distance between the endoscope tip and the anus and 2) clockwise location of each region of high intensity. […]
# White light and fluorescence videos were exported in avi format with 24 (RGB) and 8 (grayscale) bit digital resolution for the color and fluorescence images, respectively. […] On the fluorescence images, 3 regions of interest (ROI) with dimensions of 25×25 pixels were picked to represent a range of staining for normal and diseased tissues and averaged. The mean intensities within these ROI were determined to calculate the target to-background (T/B) ratio.
molecule,measurement,setting,value
CS(=O)(=O)CCNCc1ccc(-c2ccc3ncnc(Nc4ccc(OCc5cccc(F)c5)c(Cl)c4)c3c2)o1 [lapatinib],"phosphorylation of HER2 (p-HER2), AKT (p-AKT) and ERK (p-ERK)",[1]; 1 to 1000 nM,reduced expression; also recorded: dose dependent reduction
KSP*: unlabeled KSP* peptide (KSPNPRF without Cy5.5 fluorophore),fluorescence intensity of KSP*-Cy5.5 on competition with unlabeled peptide,[2],decrease significantly in a concentration dependent manner
same,"phosphorylation of HER2 (p-HER2), AKT (p-AKT) and ERK (p-ERK)",[1]; 5 and 100 μM,no change; also recorded: no reduction
"KSPNPRF (also: FITC label, site not given here) [HER2-specific peptide; FITC-labeled for candidate selection]",mean fluorescence intensity compared with other peptide candidates,[3],highest mean fluorescence intensity
"PPS*-Cy5.5: scrambled control peptide PPSNFKR linked to Cy5.5 via GGGSK (PPSNFKRGGGSK-{Cy5.5-NH2}; also: Cy5.5 attached via GGGSK linker, end not given here)",binding to cell surface on confocal microscopy,[4],minimal binding
same,staining of normal mouse colonic mucosa,[5],Minimal staining
same,"staining with cancer progression in Barrett's esophagus (SQ, BE, LGD, HGD, EAC)",[6],Minimal staining
same,mean (±std) T/B ratio,"[7]; topical 100 μM, 5 min incubation, adenomas",1.46±0.25
same,NIR fluorescence signal from polyp / flat adenoma,[7]; topical administration,Minimal signal; also recorded: significantly reduced signal
